The record followed here is paper PMC11348266.

This test concerns the target GRA4 (UniProt Q27002). Kind of test: exogenous co-IP. The note with it: reference: wild type TBK1; sites S172.

For the substance TBK1 (from UniProt Q9UHD2) TBK1 S172A, the “binding against the reference” value is given as “weaker”.
